Key:
[1] = target: T7-bio: coliphage T7 major capsid protein gp10A fused to the 15-amino acid biotinylation peptide, biotinylated in vivo by the host BLP (Enterobacteria phage T7); assay: flow cytometry of carrier E. coli cells with phage at MOI 5 and streptavidin-QDs
[2] = target: T7-bio: coliphage T7 major capsid protein gp10A fused to the 15-amino acid biotinylation peptide, biotinylated in vivo by the host BLP (Enterobacteria phage T7); assay: TEM of phage adsorbed to carrier E. coli cells, streptavidin-coated QDs in excess

Chain of T7-bio: coliphage T7 major capsid protein gp10A fused to the 15-amino acid biotinylation peptide, biotinylated in vivo by the host BLP (Enterobacteria phage T7) (P19727 1-349, tags or fused parts left off): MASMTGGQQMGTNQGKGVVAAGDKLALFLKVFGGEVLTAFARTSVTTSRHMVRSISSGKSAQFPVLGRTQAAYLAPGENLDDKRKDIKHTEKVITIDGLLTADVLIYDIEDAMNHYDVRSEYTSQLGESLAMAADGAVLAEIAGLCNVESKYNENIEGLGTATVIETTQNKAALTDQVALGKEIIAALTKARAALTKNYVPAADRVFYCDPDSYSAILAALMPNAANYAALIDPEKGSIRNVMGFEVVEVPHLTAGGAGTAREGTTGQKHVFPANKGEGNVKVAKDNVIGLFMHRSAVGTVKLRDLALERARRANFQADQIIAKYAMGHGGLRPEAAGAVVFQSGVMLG

streptavidin coated QD (QD 605), Quantum Dot Corporation (from UniProt P22629 37-163)
fluorescence against the T7-myc control (orders of magnitude) [1]: 2
percent of phage-bound cells with fluorescence above the threshold (P2) [1]: 94%
percent of T7-bio phage with no QDs bound [2]: 7%
percent of the total peptides displayed that carry a QD [2]: 0.5%

From patent US20110086338A1
